The numbers were not newly measured in patent publication US20090004190A1, “Rage Fusion Proteins And Methods Of Use” (priority 2006, published 2009), which cites them from elsewhere.

The conditions of data set [1]: assessed by retention of immunoreactivity sRAGE.

On to “human sRAGE: human soluble RAGE (SEQ ID NO: 4)”, for which the half-life in plasma entry was “about 2 hours”. Besides, the half-life entry in data set [1] was “less than 2 hours”.
